Data reported in publication PMC4815329, “Biochemical and Molecular Characterization of a Flavonoid 3-O-glycosyltransferase Responsible for Anthocyanins and Flavonols Biosynthesis in Freesia hybrida” (Frontiers in Plant Science, 2016).

Key:
[1] = substrate: Oc1cc(O)c2cc(O)c(-c3cc(O)c(O)c(O)c3)[o+]c2c1; test: HPLC of glucoside product, initial rates, Lineweaver-Burk; type: biochemical, Freesia hybrid cultivar; details: apparent Km, 10 mM UDP-glucose, 100 mM potassium phosphate pH 8.0, 30°C, 2 min
Source text: (§1) HPLC of glucoside product, initial rates, Lineweaver-Burk on Fh3GT1

[2] = substrate: O=c1c(O)c(-c2ccc(O)c(O)c2)oc2cc(O)cc(O)c12; test: as above; type: biochemical, Freesia hybrid cultivar; details: apparent Km, 10 mM UDP-glucose, 100 mM potassium phosphate pH 8.0, 30°C, 2 min
Source text: as §1

B1: Fh3GT1 (Freesia hybrid cultivar) (protein)
chain: MGSADRSHVALLAFPFGTHAAPLLSLGLNLASSAPHGTTFSFLSNRRPVSLPPNSAIKFYEIADGSDPEHEGHVHPEEEVRVFMEETPGNYKKALEAAVDRCGGQRVTCIVADAFLWFVGDIAAEFGVHWVPLWTGGPCSFLAHLYTDMLRNKIGTGKEADPDEDLQFLPGLSGFRVRDLPDDIVTGDLTGAFASLLHRMSIEIPRSAAAIAINTFEGLHPDIDADLASKFKKSLPIGPLNLLNPTLNQPDRFSCLAWLDKFEPHSVAYVSFGTLAALTEAELVELASGLEQSGVPFLWSLKEPGQLPAGFLDRTKDRGLVVPWVPQAEALKHVAVGASLSHCGWNSVMESVTSGVPMLCRPFLGDQTMNARAVSHVWKVGVTFENGTMTRANVAEAMKKVVVGEEGRKMRERAAAIREMAAGSVRPGGSSVQNFKALLDIVIAR
notes: full-length ORF, pET-28a(+), N-terminal His tag, E. coli BL21(DE3), Ni Sepharose purified; cDNA described in Sui et al. 2011; Asn-244 (NPTL) and Asn-386 (NGTM)
- Km [1]: 58.88 ± 1.68 µM
- kcat [1]: 0.53 ± 0.01 s⁻¹
- kcat/Km [1]: 9060 M⁻¹ s⁻¹
- Km [2]: 98.47 ± 4.96 µM
- kcat [2]: 4.59 ± 0.035 s⁻¹
- kcat/Km [2]: 48500 M⁻¹ s⁻¹
